Results: publication PMC12912723 (eLife, 2026)
Numbering of substitutions follows the chain as printed.

B1: P5G10 (human anti-PscF monoclonal antibody) (antibody, V domains shown)
VH: VQLQQWGAGLLKPSETLSLTCAVYGGSFSDYYWTWIRQAPGKGLEWIGENRHRGTTNYNPSLKGRVTISVDTSKNQFTLKVTSVTAADTAVYFCARQRGSSGGAPSGLDVWGQGTTVTVSS
VL: QSVLTQPPSASGTPGQRVTISCSGASSNIGTNYVFWYQQFPGTAPKLLIYRNGHRPSGVPDRFSGSKSGASASLAISGLRSDDEADYYCATWDDSLSSQVFGGGTKLTVL
notes: also called P5G10 mAb
B2: P1B7 (antibody, V domains shown)
VH: EVQLLESGGGLVQPGGSLRLSCAASGFTFKSYAMSWVRQAPGKGLEWVSAISGSGGSKYYADSVKGRFTISRDDSKNTLYLQMNSLRVEDTAVYYCAKPLLDSVYCLESWGQGTLVTVSS
VL: DIQMTQSPSSLSASVGDRVTITCRASQDISNYLSWYQQRPGKAPKSLIYAAFRLQSGVPSKFSGSGSGTDFTLTISSLQPEDFATYYCQQYYTYPPTFGQGTKLEIK
B3: P5D5 (antibody, V domains shown)
VH: B2 VH with K30N, S31N, N77S, T78R, V93L, A97T, D102E, C106Y
VL: B2 VL with D28G, Y32H, S34A, Y36F, R39K, F52S, K61R, T85S, T93S, T97A
B4: P3G7 (antibody, V domains shown)
VH: EVQLVESGGGLVQPGRSLTLSCAVTGFIVRDYHIDWVRQAPGKGLEWVGRARNKASRYRVVYAASLKDRFTIIRDDSKNSIYLRMSSLKTEDAAMYFCVRVGHYDTQGYALDDYDVWGQGTAVTVSS
VL: QSVLTQSPSVSAAPGQRVTIHCFGSSSTIGSNQLSWYQQVPGTAPKLLIYDSDKRPSGIPDRFSASKSGTSGTLDISGLQSGDEADYYCETWDDTLKAVVFGGGTKLTVL
B5: P1D7 (antibody, V domains shown)
VH: EVQLLESGGGLVQPGGSLRLSCAASGFTFTSYAMSWVRQAPGKGLEWVSALSNSGDSTYYADSVKGRFTISRDNSKNTLYLQMHSLRVEDTAVYYCAKDREGDYGDYVFDYWGQGTLVTVSS
VL: SYVLTQPPSVSVAPGQTARIPCGGNNIGRKSVHWYQQKPGQAPVLVVYDDSDRPSGIPERFSGSNSGNTATLTISRVEAGDEADYYCQVWDSSDDLVVFGGGTTLTVL
B6: P3G2 (antibody, V domains shown)
VH: QVQLQESGPGLVKPSETLSLTCSVSGGSVASGDFYWSWVRQPAGTGLEWIGRVSTSGSTNCNPSLKSRVTISIDTSKNEFSLRLPSVTAADTAVYYCARYRPGSGGLGVYYDYWGQGILVTVSS
VL: QSALTQPPSASGSPGQSVTISCTGASSDIGGYNYVSWYQQHPGRAPRLMIYEVHNRPSGVPDRFSGSKSGNTASLTVSGLQAEDEADYYCMSYAGGNILLFGGGTKLTVL
B7: P1D5 (antibody, V domains shown)
VH: QVQLHESGPGLVEPSQTLTLTCTVSGGSTDSDGVYWTWIRQPAGKGLEWIGRIDNRGTYSYNPSLRSRITISEEPSQNQFSLRVRSLTAADAGVYYCAREVRRLQGRRYYYYGTDVWGPGTTVTVSS
VL: DIVMTQSPLSLSVTLGESASISCRSSQSLLHTNAYNYLDWYLQRPGQSPQLLIYLSSVRASGVPDRFSGRGSGTDFTLKISRVEAEDVGIYFCMQALEMPFTFGPGTKVDIK

What follows are binders tested against T1, PscF from strain PAO1 (Pseudomonas aeruginosa PAO1, UniProt P95434) (assay: ELISA; competition ELISA; serial dilutions of competitor mAbs on antigen-coated wells for 30 min, then biotinylated mAbs at their EC70; detected with AP-conjugated streptavidin). Settings: both partners purified.
T1 construct: also called recombinant PscF; PscF-His
T1 sequence (P95434 whole entry): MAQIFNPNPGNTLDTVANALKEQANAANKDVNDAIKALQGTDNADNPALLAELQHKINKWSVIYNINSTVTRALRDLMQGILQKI

Does B1 bind?
Result: binds

These binders were tested against T1, PscF from strain PAO1 (assay: not given). Settings: not given.

Does B2 bind?
Result: binds

Does B3 bind?
Result: binds

Does B4 bind?
Result: binds

Does B5 bind?
Result: binds

Does B6 bind?
Result: binds

Does B7 bind?
Result: binds
